Assay results as given in paper PMC4948773, “Identification of Preferred DNA-Binding Sites for the Thermus thermophilus Transcriptional Regulator SbtR by the Combinatorial Approach REPSA” (PLoS ONE, 2016).
Changes are numbered by the printed parent chain.

T1: SbtR (Thermus thermophilus HB8, UniProt Q5SLX6 1-189)
T1 sequence: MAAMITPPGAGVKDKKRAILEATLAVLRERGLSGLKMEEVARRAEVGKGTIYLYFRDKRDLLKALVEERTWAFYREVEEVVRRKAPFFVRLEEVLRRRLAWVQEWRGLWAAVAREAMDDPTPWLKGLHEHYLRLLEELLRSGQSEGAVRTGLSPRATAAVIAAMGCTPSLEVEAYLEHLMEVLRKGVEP

B1: SbtR, transcriptional regulator encoded by the Thermus thermophilus HB8 TTHA0167 gene (natural protein, UniProt Q5SLX6 1-189, looked up)
chain: T1 sequence
modifications: intermolecular disulfide bond (disulfide-linked dimeric species)
notes: SbtR, TetR/AcrR family transcriptional regulator, Thermus thermophilus HB8, TTHA0167 (sbtR) gene in pET-11a; 189 amino acid residues, 21,539 Da; called wild-type SbtR; It says the plasmid holds the TTHA0167 gene and reckons the stock concentration from the 189-residue protein; also called SbtR2; SbtR dimer; source: E. coli BL21(DE3) with pET-sbtR, IPTG-induced; soluble extract heated at 70°C for …
B2: m1 (dsDNA)
DNA 1: CTAGGAATTCGTGCAGAGGTGAATAGACTGGCCAGTCATTACCATCCCTCCAGAAGCTTGGAC
DNA 2: GTCCAAGCTTCTGGAGGGATGGTAATGACTGGCCAGTCTATTCACCTCTGCACGAATTCCTAG
B3: m6 (dsDNA)
DNA 1: B2 DNA 1 with A25T, G30C
DNA 2: B2 DNA 2 with C34G, T39A
B4: m3 (dsDNA)
DNA 1: B2 DNA 1 with A25T, A27T
DNA 2: B2 DNA 2 with T37A, T39A
B5: m4 (dsDNA)
DNA 1: B2 DNA 1 with A25T, C28G
DNA 2: B2 DNA 2 with G36C, T39A
B6: m7 (dsDNA)
DNA 1: B2 DNA 1 with A25T, G31C
DNA 2: B2 DNA 2 with C33G, T39A
B7: m2 (dsDNA)
DNA 1: B2 DNA 1 with A25T, G26C
DNA 2: B2 DNA 2 with C38G, T39A
B8: m5 (dsDNA)
DNA 1: B2 DNA 1 with A25T, T29A
DNA 2: B2 DNA 2 with A35T, T39A
B9: SbtR mini probe 22-bp (dsDNA)
DNA 1: GCCCTGACTGGCCAGTCACCCG
DNA 2: CGGGTGACTGGCCAGTCAGGGC

Target: the molecule itself
Test: SDS-PAGE with and without reductant; Coomassie-stained 4-20% SDS-PAGE gradient gel; purified SbtR loaded under standard reducing conditions or under oxidizing conditions (Laemmli loading buffer lacking reductant)
Details: not given
With B1 the “stoichiometry N” value was 2.

Each binder was assayed against T1, SbtR (assay: BLI; EMSA/REPA: 50 mM K acetate, 20 mM Tris acetate, 10 mM Mg acetate, BSA (CutSmart), pH 7.9, binding 55 C 20 min (REPA cleavage 37 C); BLI: 20 mM Tris-Cl pH 7.7, 100 mM NaCl, 1 mM EDTA, 0.05% Tween 20, 30 C (hydration step; binding temperature not separately stated); concentrations as SbtR dimer). Details: protein: recombinant; tags: none stated (pET-11a, wild-type); chain copies: 2; label: 5' biotin-dT on strand 2 (extra 5' T in primer).
B2 showed a Kd of 0.551 nM. B3 was tested, and the Kd was 0.159 nM. B4 was tested, and the Kd was 2.18 nM. Binder B5 has a Kd of 1.24 nM. For B6, the Kd was 0.839 nM. B7 gave a Kd of 7.11 nM. B8 gave a Kd of 15.5 nM.

What follows are binders tested against T1, SbtR (assay: EMSA; S1 complex, apparent; EMSA/REPA: 50 mM K acetate, 20 mM Tris acetate, 10 mM Mg acetate, BSA (CutSmart), pH 7.9, binding 55 C 20 min (REPA cleavage 37 C); BLI: 20 mM Tris-Cl pH 7.7, 100 mM NaCl, 1 mM EDTA, 0.05% Tween 20, 30 C (hydration step; binding temperature not separately stated); concentrations as SbtR dimer). Details: protein: recombinant; tags: none stated (pET-11a, wild-type); chain copies: 2; label: 5' IRDye700 on strand 1; blunt.
For B9, the Kd was 5 nM.
